{"source": "patent US20140057311A1", "about": "“Device For High Throughput Investigations Of Multi-Cellular Interactions” (priority 2010, published 2014)", "key": {"[1]": {"system": "dorsal root ganglion (DRG) neurons", "test": "DRG axonal outgrowth and turning under slit-2 gradient after 5-FU treatment", "assay_type": "cell-based, mice", "protocol": "(§1) Primary hippocampal neurons and dorsal root ganglion (DRG) neurons cultured in the devices were obtained from embryonic day 14.5-16.5 mice as per protocols described in detail elsewhere (R. Li, Methods. Cell. Biol., 1998, 57, 167; W. E. Thomas, Life. Sci., 1986, 38, 297; A. V. Kwiatkowski, et al., Neuron, 2007, 56, 441). Cells from micro-dissected cortices were dissociated and resuspended in serum-free media at a final concentration of 10 million cells/mL. The neurons were seeded into the devices (n=10 devices per test condition) immediately after dissociation and cultured for 1-2 days, with serum-free media replaced in all the channels twice a day, before any guidance cue was introduced. All cell cultures were maintained in a humidified incubator at 5% CO2 and 37° C. For netrin-1 studies (FIGS. 11A-11C), hippocampal neurons were transfected using amaxa nucleofection, with a pmax-gfp plasmid cotransfected with a plasmid expressing DCC (deleted in colorectal cancer) receptor (M. J. Galko and M. Tessier-Lavigne, Science, 2000, 289, 1365).\n(§2) Netrin-1 added in the channel was obtained from multiple sources: lab-isolated (T. Serafini, et al., Cell, 1994, 78, 409) netrin-1 (0.1-10 μg/mL), and netrin-1 released from cDNA transfected stable fibroblast cell line (K. Löw, et al., J. Neurosci., 2008, 28, 1099). […] Brain pulp was prepared in the lab from fresh whole mouse brain tissues. Briefly, the brain tissue was homogenized with a rotor stator in a hypotonic solution supplemented with protease inhibitors (protease inhibitor cocktail; Roche, USA), filtered, total protein content measured using a Bradford protein assay, and diluted to […] concentration. […]\n(§3) Phase-contrast, fluorescence and confocal microscopy were used to characterize axonal distribution and quantify axonal turning in 3D collagen gels within the devices. […] The last 100 μm segment along the length of each axon leading to the growth cone was traced with NeuronJ (E. Meijering, et al., Cytometry. Part. A, 2004, 58, 167), and the angle this segment makes with the horizontal line (0°) was measured. […]"}, "[2]": {"system": "Human Lung Cancer Cell Line A549 aggregates", "test": "A549 cancer aggregate break-up/migration in collagen gel with HUVEC monolayer, high throughput microfluidic device", "assay_type": "cell-based", "protocol": "Red colure cells are from Human Lung Cancer Cell Line A549 were transfected with H2B protein (m-Cherry), and partially disassociated, yielding cell aggregates of random sizes, between 40 um and 70 um. This was aspirated through a 100 micrometer strainer, yielding a media with cell aggregates with radii under 100 micrometers. This was poured through a second 40-micrometer filter, yielding a media with A549 aggregates between 40 and 100 micrometers. The cells were then centrifuged at 800 rpm for 2 minutes, and the media aspirated.\nCollagen gel was prepared by adding 9 microliters of 1 M NaOH to 20 microliters of Phosphate Buffered Solution (BD Bioscience), and then adding 46 microliters of ultrapure H2O. Finally, 125 microliters of Type I Rat Tail Collagen at 2.5 mg/mL (BD Biosciences) were added, and mixed thoroughly.\nThe A549 aggregates were then mixed with the collagen gel, yielding a mixture of aggregates within the gel. Ten microliters of the gel were then injected into the center channel of the device shown in FIGS. 1 and 2, yielding 36 distinct gel-fluid interfaces within the device.\nHuman Umbilical Vein Endothelial Cells were transfected by GFP protein label disassociated, and flowed into the first media channel. Media without cells was added to the second channel. Adding a small bubble of media on each port of the first media channel yielded a hydrostatic pressure gradient, pushing cells to the gel-media interfaces. The pressure gradient was maintained for one hour, before the bubbles were removed. The device was cultured, and imaged at 0, 12, 36, 60, 84, and 108 hours. The endothelial cells were seen to create an endothelial monolayer along the bottom of the media channel, as well as on the gel-media interface.\nIn the control group, no drugs were added to the system. In the experimental group, the commercial cancer anti-metastatic drug Iressa (AstraZeneca), an EGFR-TK enzyme blocker, was added to the endothelial cell medium in doses of 100 nM, 500 nM, 1000 nM, 1500 nM, and 2000 nM. […]"}, "hippocampal neurons": {"system": "hippocampal neurons", "test": "Hippocampal axonal turning under guidance cue gradient in 3D collagen gel, spider microfluidic device", "assay_type": "cell-based, mice", "protocol": "as §1\nNetrin-1 added in the channel was obtained from multiple sources: lab-isolated (T. Serafini, et al., Cell, 1994, 78, 409) netrin-1 (0.1-10 μg/mL), and netrin-1 released from cDNA transfected stable fibroblast cell line (K. Löw, et al., J. Neurosci., 2008, 28, 1099). […] Brain pulp was prepared in the lab from fresh whole mouse brain tissues. Briefly, the brain tissue was homogenized with a rotor stator in a hypotonic solution supplemented with protease inhibitors (protease inhibitor cocktail; Roche, USA), filtered, total protein content measured using a Bradford protein assay, and diluted to […] concentration. The chemorepellant used was Slit-2 (62.5 or 250 ng/mL; R&D Systems, Minneapolis, Minn.)). For chemosensing studies, the medium was removed from all the ports after 24-48 h of cell seeding, and 350 μL medium containing known concentration of guidance cue was introduced in the chemoattractant channel, and 350 μL serum-free media in each of the remaining two channels. For the experiments with netrin-1 being released from fibroblasts, transfected fibroblasts (1×10^5 cells) were seeded in the chemoattractant channel (source), and normal fibroblasts (non-transfected, 1×10^5 cells) were seeded in the left channel (sink). […] Netrin-1 released from the transfected fibroblasts diffuses across the collagen-1 gel and creates a gradient. The medium was changed at regular intervals to maintain chemogradient at all times. The control devices which received no guidance cues were cultured in the same procedure as with test cases.\nas §3, with “devices. Florescent and phase contrast images were acquired with a Nikon TE300 microscope equipped with a Hamamatsu camera and Openlab image acquisition software. Axonal and nuclei staining were performed after fixation with 4% PFA (30 min).” for “devices.”"}, "[3]": {"system": "dorsal root ganglion (DRG) neurons", "test": "DRG neuron migration into 3D collagen scaffold under slit-2 gradient", "assay_type": "cell-based, mice", "details": "slit-2 250 ng/mL", "protocol": "as §1, §2, §3"}, "[4]": {"details": "slit-2 250 ng/mL in the right channel, n=64 axons"}}, "data": [{"molecule": "O=c1[nH]cc(F)c(=O)[nH]1", "note": "[5-FU, 5-fluorourasil, reference compound]", "values": [{"measurement": "DRG cell migration into the scaffold", "setting": "[1]; 5-FU 10^−5 M seeded with DRG explants on day 0, 24 h culture", "result": "no cell migration into the scaffold was observed"}]}, {"molecule": "COc1cc2ncnc(Nc3ccc(F)c(Cl)c3)c2cc1OCCCN1CCOCC1", "note": "[Iressa]", "values": [{"measurement": "behaviour of A549 cancer aggregates", "setting": "[2]; 100 nM and 500 nM drug concentrations", "result": "cancer aggregates were seen to break up"}, {"measurement": "behaviour of A549 cancer aggregates", "setting": "[2]; 1000 nM, 1500 nM and 2000 nM drug concentrations", "result": "the cancer aggregates stayed intact"}, {"measurement": "minimum effective dose", "setting": "[2]; drug in endothelial cell medium, keeps A549 aggregates intact", "result": 1000, "unit": "nM"}]}, {"molecule": "slit-2: chemorepellant guidance cue Slit-2 (R&D Systems) (protein, UniProt O94813 31-1529, looked up) Slit homolog 2 protein: QCSCSGSTVDCHGLALRSVPRNIPRNTERLDLNGNNITRITKTDFAGLRHLRVLQLMENKISTIERGAFQDLKELERLRLNRNHLQLFPELLFLGTAKLYRLDLSENQIQAIPRKAFRGAVDIKNLQLDYNQISCIEDGAFRALRDLEVLTLNNNNITRLSVASFNHMPKLRTFRLHSNNLYCDCHLAWLSDWLRQRPRVGLYTQCMGPSHLRGHNVAEVQKREFVCSGHQSFMAPSCSVLHCPAACTCSNNIVDCRGKGLTEIPTNLPETITEIRLEQNTIKVIPPGAFSPYKKLRRIDLSNNQISELAPDAFQGLRSLNSLVLYGNKITELPKSLFEGLFSLQLLLLNANKINCLRVDAFQDLHNLNLLSLYDNKLQTIAKGTFSPLRAIQTMHLAQNPFICDCHLKWLADYLHTNPIETSGARCTSPRRLANKRIGQIKSKKFRCSAKEQYFIPGTEDYRSKLSGDCFADLACPEKCRCEGTTVDCSNQKLNKIPEHIPQYTAELRLNNNEFTVLEATGIFKKLPQLRKINFSNNKITDIEEGAFEGASGVNEILLTSNRLENVQHKMFKGLESLKTLMLRSNRITCVGNDSFIGLSSVRLLSLYDNQITTVAPGAFDTLHSLSTLNLLANPFNCNCYLAWLGEWLRKKRIVTGNPRCQKPYFLKEIPIQDVAIQDFTCDDGNDDNSCSPLSRCPTECTCLDTVVRCSNKGLKVLPKGIPRDVTELYLDGNQFTLVPKELSNYKHLTLIDLSNNRISTLSNQSFSNMTQLLTLILSYNRLRCIPPRTFDGLKSLRLLSLHGNDISVVPEGAFNDLSALSHLAIGANPLYCDCNMQWLSDWVKSEYKEPGIARCAGPGEMADKLLLTTPSKKFTCQGPVDVNILAKCNPCLSNPCKNDGTCNSDPVDFYRCTCPYGFKGQDCDVPIHACISNPCKHGGTCHLKEGEEDGFWCICADGFEGENCEVNVDDCEDNDCENNSTCVDGINNYTCLCPPEYTGELCEEKLDFCAQDLNPCQHDSKCILTPKGFKCDCTPGYVGEHCDIDFDDCQDNKCKNGAHCTDAVNGYTCICPEGYSGLFCEFSPPMVLPRTSPCDNFDCQNGAQCIVRINEPICQCLPGYQGEKCEKLVSVNFINKESYLQIPSAKVRPQTNITLQIATDEDSGILLYKGDKDHIAVELYRGRVRASYDTGSHPASAIYSVETINDGNFHIVELLALDQSLSLSVDGGNPKIITNLSKQSTLNFDSPLYVGGMPGKSNVASLRQAPGQNGTSFHGCIRNLYINSELQDFQKVPMQTGILPGCEPCHKKVCAHGTCQPSSQAGFTCECQEGWMGPLCDQRTNDPCLGNKCVHGTCLPINAFSYSCKCLEGHGGVLCDEEEDLFNPCQAIKCKHGKCRLSGLGQPYCECSSGYTGDSCDREISCRGERIRDYYQKQQGYAACQTTKKVSRLECRGGCAGGQCCGPLRSKRRKYSFECTDGSSFVDEVEKVVKCGCTRCVS", "values": [{"measurement": "percentage of axons that turned away from the high concentration, 250 ng/mL versus 62.5 ng/mL", "setting": "hippocampal neurons; increasing slit-2 from 62.5 ng/mL to 250 ng/mL, p<0.001", "result": "tripled"}, {"measurement": "chemorepellent effect on hippocampal axonal turning", "setting": "hippocampal neurons; slit-2 62.5 ng/mL, n=51 axons", "result": "did not exhibit similar strong repellent characteristics"}, {"measurement": "percentage of axons in Q1 (towards guidance cue)", "setting": "hippocampal neurons; [4]", "result": "18.2±4.5", "unit": "%"}, {"measurement": "percentage of axons in Q3 (away from guidance cue)", "setting": "hippocampal neurons; [4]", "result": "42.6±9.1", "unit": "%"}, {"measurement": "enhancement of axonal turning down the gradient relative to controls which received no cues", "setting": "hippocampal neurons; slit-2 250 ng/mL, p<0.001", "result": 3.4, "unit": "fold"}, {"measurement": "DRG neuron migration down the gradient, percentage in Q3", "setting": "[3]", "result": "74±12.5", "unit": "%"}, {"measurement": "increase in DRG neuron migration down the gradient relative to controls", "setting": "[3]; p<0.001 vs. controls", "result": 5, "unit": "fold"}, {"measurement": "increase in DRG neuron migration down the gradient relative to 62.5 ng/mL slit-2 gradient", "setting": "[3]; p<0.01", "result": 2.7, "unit": "fold"}, {"measurement": "percentage of DRG axons repelled", "setting": "[1]; slit-2 250 ng/mL in right hand channel after 24 h 5-FU, p<0.03 vs. controls", "result": "70±14.2", "unit": "%"}, {"measurement": "inhibition of DRG neuron axonal turning into Q1 relative to control cultures", "setting": "[1]; slit-2 250 ng/mL, p<0.05 vs. controls", "result": 56, "unit": "%"}]}]}
